Source: US20090110693A1 (IMAXIO, published 2009)

Target: the molecule itself
Experiment: self-association, SDS-PAGE with and without reducing agent

Row | Protein | binding result
1 | AVD259 protein (chicken C4 bp oligomerisation domain with N-terminal leader) (other, Expressed in E. coli; On a non-reducing gel, monomer to heptamer bands are seen because disulphide formation is incomplete; the heptamer is the highest species; also called recombinant AVD259 protein) MALKKHHENEISHHGSKKQGDADVCGEVAYIQSVVSDCHVPTEDVKTLLEIRKLFLEIQKLKVELQGLSKEFLEHILH | binds
2 | AVD262 fusion protein (Plasmodium yoelii MSP1.19-chicken C4 bp oligomerisation domain) (other, Runs as a disulphide-linked heptamer of about 140 kDa without reducing agent) MRSHIASIALNNLNKSGLVGEGESKKILAKMLNMDGMDLLGVDPKHVCVDTRDIPKNAGCFRDDNGTEEWRCLLGYKKGEGNTCVENNNPTCDINNGGCDPTASCQNAESTENSKKIICTCKEPTPNAYYEGVFCSSSGSKKQGDADVCGEVAYIQSVVSDCHVPTEDVKTLLEIRKLFLEIQKLKVELQGLSKEFLEHILH | binds
